Measured values as given in article doi:10.1101/2022.02.11.480038.

Tests used:
[1] = molecular target: GABARAP K48A mutant (human) (UniProt O95166); assay: ITC
[2] = molecular target: GABARAP Y5F H9A mutant (human) (UniProt O95166); assay: ITC

- Kd [1]: 2 µM
- Kd [2]: 2 µM
Substance: phosphorylated TEX264 LIR (residues 269-278 with p-S271,p-S272) (peptide)
